From the supplement of paper PMC9112550, “Optimization of the antimicrobial peptide Bac7 by deep mutational scanning” (BMC Biology, 2022)

Test system: Escherichia coli TOP10
Experiment: shrunken log2 fold change of peptide-encoding DNA abundance (4.5 h post-induction vs induction); higher = less antimicrobial activity (less host growth inhibition)
Settings: time post-induction: 4.5 h; library: site-saturation at positions 5, 18, 19, 20
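Also: peptides expressed intracellularly from a pBAD plasmid library in pooled LB shake-flask culture, induced with 0.3% L-arabinose, DNA abundance read by NGS, three biological replicates, DESeq2 with apeglm shrinkage.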

Sequence	shrunken log2 fold change
RRIRCRPPRLPRPRPRPPPQPRP	1.34
RRIRNRPPRLPRPRPRPAVGPRP	0.543
RRIRCRPPRLPRPRPRPLINPRP	-0.621
RRIRTRPPRLPRPRPRPSPTPRP	0.0477
RRIRKRPPRLPRPRPRPHDEPRP	0.261
RRIRCRPPRLPRPRPRPSYWPRP	-0.71
RRIRIRPPRLPRPRPRPHPVPRP	0.0514
RRIRQRPPRLPRPRPRPHMNPRP	-0.76
RRIRQRPPRLPRPRPRPDCDPRP	-0.0763
RRIRTRPPRLPRPRPRPREMPRP	0.101
RRIRNRPPRLPRPRPRPWRLPRP	0.0636
RRIRQRPPRLPRPRPRPECFPRP	0.398
RRIRIRPPRLPRPRPRPSCFPRP	-0.625
RRIRERPPRLPRPRPRPCCGPRP	-0.18
RRIRKRPPRLPRPRPRPKSAPRP	0.656
RRIRCRPPRLPRPRPRPWNKPRP	-0.684
RRIRMRPPRLPRPRPRPGINPRP	-0.319
RRIRERPPRLPRPRPRPADQPRP	0.0155
RRIRSRPPRLPRPRPRPCNIPRP	-0.178
RRIRLRPPRLPRPRPRPQEPPRP	-0.0198
RRIRLRPPRLPRPRPRPCWQPRP	0.00378
RRIRVRPPRLPRPRPRPHASPRP	-0.15
RRIRQRPPRLPRPRPRPYCAPRP	-0.624

Sequence	shrunken log2 fold change
RRIRMRPPRLPRPRPRPEQPPRP	0.395
RRIRMRPPRLPRPRPRPKSKPRP	0.566
RRIRCRPPRLPRPRPRPAPNPRP	0.526
RRIRWRPPRLPRPRPRPRMYPRP	-0.196
RRIRTRPPRLPRPRPRPRPWPRP	0.0956
RRIRYRPPRLPRPRPRPESLPRP	-0.0595
RRIRLRPPRLPRPRPRPMMDPRP	-0.0843
RRIRWRPPRLPRPRPRPPRYPRP	0.374
RRIRWRPPRLPRPRPRPLLNPRP	0.00531
RRIRERPPRLPRPRPRPPEDPRP	2.12
RRIRMRPPRLPRPRPRPRVLPRP	1.12
RRIRGRPPRLPRPRPRPWASPRP	-0.00862
RRIRRRPPRLPRPRPRPNQRPRP	0.269
RRIRWRPPRLPRPRPRPFKMPRP	-0.0125
RRIRNRPPRLPRPRPRPMRHPRP	-0.18
RRIRRRPPRLPRPRPRPRVFPRP	0.849
RRIRRRPPRLPRPRPRPLTNPRP	-0.16
RRIRNRPPRLPRPRPRPDCWPRP	-0.0568
RRIRHRPPRLPRPRPRPVDEPRP	0.184
RRIRCRPPRLPRPRPRPWCCPRP	-0.649
RRIRFRPPRLPRPRPRPAQMPRP	0.121
RRIRRRPPRLPRPRPRPFSPPRP	-0.173
RRIRMRPPRLPRPRPRPAFIPRP	-0.398

Sequence	shrunken log2 fold change
RRIRSRPPRLPRPRPRPQPGPRP	0.287
RRIRWRPPRLPRPRPRPSYAPRP	0.0124
RRIRSRPPRLPRPRPRPLLVPRP	0.0795
RRIRKRPPRLPRPRPRPINYPRP	-0.0959
RRIRERPPRLPRPRPRPQWTPRP	-0.0833
RRIRYRPPRLPRPRPRPVKSPRP	-0.84
RRIRLRPPRLPRPRPRPKPMPRP	0.964
RRIRVRPPRLPRPRPRPYRLPRP	0.0399
RRIRKRPPRLPRPRPRPFIKPRP	-0.0863
RRIRWRPPRLPRPRPRPVGEPRP	1.01
RRIRWRPPRLPRPRPRPEVLPRP	0.167
RRIRVRPPRLPRPRPRPFCEPRP	-0.197
RRIRSRPPRLPRPRPRPEDQPRP	0.106
RRIRSRPPRLPRPRPRPWNFPRP	-0.0212
RRIRNRPPRLPRPRPRPCGLPRP	0.0441
RRIRERPPRLPRPRPRPTTPPRP	-0.0926
RRIRQRPPRLPRPRPRPPIKPRP	-0.0648
RRIRPRPPRLPRPRPRPMCMPRP	-0.32
RRIRYRPPRLPRPRPRPKETPRP	-0.00674
RRIRERPPRLPRPRPRPGDYPRP	-0.0324
RRIRRRPPRLPRPRPRPATFPRP	0.0785
RRIRVRPPRLPRPRPRPCEDPRP	-0.0254
RRIRPRPPRLPRPRPRPYQWPRP	-0.124

Sequence	shrunken log2 fold change
RRIRNRPPRLPRPRPRPSYYPRP	-0.877
RRIRTRPPRLPRPRPRPNGHPRP	0.0943
RRIRERPPRLPRPRPRPISPPRP	-0.356
RRIRWRPPRLPRPRPRPDMGPRP	0.454
RRIRSRPPRLPRPRPRPLEPPRP	-0.132
RRIRGRPPRLPRPRPRPRKQPRP	0.875
RRIRKRPPRLPRPRPRPGECPRP	0.381
RRIRKRPPRLPRPRPRPPRKPRP	0.821
RRIRFRPPRLPRPRPRPLHNPRP	-0.398
RRIRYRPPRLPRPRPRPPWPPRP	0.405
RRIRERPPRLPRPRPRPDVDPRP	0.0225
RRIRLRPPRLPRPRPRPVRSPRP	0.53
RRIRTRPPRLPRPRPRPHDMPRP	0.000904
RRIRYRPPRLPRPRPRPDKTPRP	0.0325
RRIRGRPPRLPRPRPRPPDEPRP	1.27
RRIRTRPPRLPRPRPRPNPLPRP	-0.216
RRIRQRPPRLPRPRPRPLHQPRP	-0.172
RRIRARPPRLPRPRPRPTMPPRP	0.364
RRIRWRPPRLPRPRPRPINWPRP	0.0481
RRIRHRPPRLPRPRPRPKQFPRP	-0.108
RRIRGRPPRLPRPRPRPYFGPRP	-0.335
RRIRMRPPRLPRPRPRPTATPRP	3.59
